Data taken from the supplement of paper PMC9170038.

Test system: MS2 coat protein
Experiment: apparent KD of MS2 coat protein; designed switch direction (-1 OFF switch, 1 ON switch): 1; higher = weaker reporter binding
Summary of the method: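 RNA switches sharing common flanks were transcribed by stalled E. coli RNA polymerase on Illumina chips. A doubling series of SNAP-549-labelled MS2 coat protein, from 0.7 or 1.5 nM to 3 µM, was applied in Tris-HCl pH 7.5 buffer with KCl, MgCl2, BSA, DTT, tRNA and Tween-20. Each step lasted 0.8–1.5 h at the bottom of the series and 10–20 min at the top. Normalised cluster fluorescence was curve-fitted, giving apparent KD as the per-design median over clusters.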

[1] = input ligand: microRNA oligo, concentration not stated
[2] = Eterna round: R95, input ligand: microRNA oligo, concentration not stated

## UUAAUUAAUUAAUUAUACAUGAGGAUCACCCAUGUAAGUGAUCAGGAUAUCAGCUCGAAUAGAGCUGAGAAGGGAUACAUGUAA [SSNG3/13-A1] (Eterna round: R96, puzzle: Same State NG 3)
[1]
  apparent KD of MS2 coat protein: 148 nM

## UUAAUUAAUUAAUUAUACAUGAGGAUCACCCAUGUAAGUGAUCAGGAUAUCAGCUCGUUUAGAGCUGAGAAGGGAUACAUGAAU [SSNG3/12-A3] (Eterna round: R96, puzzle: Same State NG 3)
Input ligand: FMN 200 uM
  apparent KD of MS2 coat protein: 91.6 nM
[1]
  apparent KD of MS2 coat protein: 85.9 nM
Input ligand: none
  apparent KD of MS2 coat protein: 143 nM

## UUAAUUUACUGAGGAUAUCGUGUCGACUGAGUUGACAUGAGGAUCACCCAUGUGAGAAGUGGUAUCGAGAAGGCAGUUUUCAUA [JR_SSNG2_Sub024] (Eterna round: R96, puzzle: Same State NG 2)
Input ligand: FMN 200 uM
  apparent KD of MS2 coat protein: 17.2 nM
[1]
  apparent KD of MS2 coat protein: 59 nM
Input ligand: none
  apparent KD of MS2 coat protein: 89.6 nM

## UUAGGAUGUGAAGGAUAUGCCGAGUUAAGCCCAGCAGAAGGUUACAUACCUUUUGAUACAUGAGGAUCACCCAUGUUCUAAGAU [Eternabot solution 45] (Eterna round: R96, puzzle: Same State NG 1)
[1]
  apparent KD of MS2 coat protein: 33.8 nM

## UUAUUCUAUAUAGGAUAUUGAUGUAAUUUAUUUCAAGAAGGAUAUACAUGAGGAUCACCCAUGUUGGAUAGGGUUAGUUUGUUU [JR_SSNG1_Sub080] (Eterna round: R96, puzzle: Same State NG 1)
[1]
  apparent KD of MS2 coat protein: 58.2 nM

## UUCACCUUUUUUAACAUGAGGAUCACCCAUGUAUAUUGUACGUAGGAUAUCGAUGCUUUUUUUUUCGAGAAGGACGAUGUAAGU [JR_SSND3_Sub051] (Eterna round: R96, puzzle: Same State NG 3)
Input ligand: FMN 200 uM
  apparent KD of MS2 coat protein: 38.6 nM
[1]
  apparent KD of MS2 coat protein: 34.2 nM
Input ligand: none
  apparent KD of MS2 coat protein: 37.5 nM

## UUGAAGAACUAAGGAUAUUGAAUACAUAUGUUUAACAUGAGGAUCACCCAUGUGGGUUGCGGUGUCGAGAAGGUAGAAUAAUAG [Mat - same State NG 2 - JL mod - D96] (Eterna round: R96, puzzle: Same State NG 2)
Input ligand: FMN 200 uM
  apparent KD of MS2 coat protein: 185 nM
[1]
  apparent KD of MS2 coat protein: 148 nM
Input ligand: none
  apparent KD of MS2 coat protein: 272 nM

## UUGAAGAAUUAAGGAUAUCGAGUACAUAUGUUUAACAUGAGGAUCACCCAUGUGGGUUGCGGUAUCGAGAAGGUAAAUUACAAG [JL SSNG2 1.43] (Eterna round: R96, puzzle: Same State NG 2)
Input ligand: FMN 200 uM
  apparent KD of MS2 coat protein: 45.3 nM
[1]
  apparent KD of MS2 coat protein: 32 nM
Input ligand: none
  apparent KD of MS2 coat protein: 53.9 nM

## UUGAAGAAUUAAGGAUAUUGAGUACAUAUGUUUAACAUGAGGAUCACCCAUGUGGGUUGCGGUAUCGAGAAGGUAAAUUAAUAG [Mat - same State NG 2 - JL mod - D66] (Eterna round: R96, puzzle: Same State NG 2)
Input ligand: FMN 200 uM
  apparent KD of MS2 coat protein: 94.4 nM
[1]
  apparent KD of MS2 coat protein: 126 nM
Input ligand: none
  apparent KD of MS2 coat protein: 157 nM

## UUGAAGAAUUAAGGAUAUUGAUUACAUAUGUUUAACAUGAGGAUCACCCAUGUGGGUUGCGGUAUCGAGAAGGUAAAUUAAUAG [Mat - same State NG 2 - JL mod - D81] (Eterna round: R96, puzzle: Same State NG 2)
Input ligand: FMN 200 uM
  apparent KD of MS2 coat protein: 168 nM
[1]
  apparent KD of MS2 coat protein: 181 nM
Input ligand: none
  apparent KD of MS2 coat protein: 174 nM

## UUGAAGACGGACAAGGAUAUGUCAAAGGAAACAUGAGGAUCACCCAUGUGGAGAUUGGAGAAGAAACAGAAGGUGUACGGAGAGA [JR_SS2_Sub008] (puzzle: Same State 2)
Eterna round: R95, input ligand: FMN 200 uM
  apparent KD of MS2 coat protein: 27.5 nM
[2]
  apparent KD of MS2 coat protein: 13.6 nM
Eterna round: R95, input ligand: none
  apparent KD of MS2 coat protein: 21.4 nM

## UUGAAUAAUUAAGGAUAUCGAGUACAUAUGUUAAACAUGAGGAUCACCCAUGUGGGUUGCGGUAUCGAGAAGGUAAAAGACAAG [Mat - Same State NG 2 - JL mod - D59] (Eterna round: R96, puzzle: Same State NG 2)
Input ligand: FMN 200 uM
  apparent KD of MS2 coat protein: 31.2 nM
[1]
  apparent KD of MS2 coat protein: 25.6 nM
Input ligand: none
  apparent KD of MS2 coat protein: 42 nM

## UUGAGAUGUACAGGAUAUGGUGAGGAUCACCCACUAGAAGGGUGCACAUGUGAAUCGGACAUGAGGAUCACCCAUGUAGGGCGU (Eterna round: R96, puzzle: Same State NG 1)
Input ligand: FMN 200 uM
  apparent KD of MS2 coat protein: 187 nM
[1]
  apparent KD of MS2 coat protein: 207 nM
Input ligand: none
  apparent KD of MS2 coat protein: 369 nM

## UUGAGGAAUUAAGGAUAUUGAGUACAUAUGUUUAACAUGAGGAUCACCCAUGUGGGUUGCGGUAUCGAGAAGGUAAAUUACAAG [Mat - same State NG 2 - JL mod - D74] (Eterna round: R96, puzzle: Same State NG 2)
[1]
  apparent KD of MS2 coat protein: 97.8 nM

## UUGAUAUGCGCAGGAUAUGGUGAGGAUCACCCACUAGAAGGGUGCACAUGAGAAUCGAACAUGAGGAUCACCCAUGUUCUGAGC (Eterna round: R96, puzzle: Same State NG 1)
Input ligand: FMN 200 uM
  apparent KD of MS2 coat protein: 831 nM
[1]
  apparent KD of MS2 coat protein: 295 nM
Input ligand: none
  apparent KD of MS2 coat protein: 1030 nM

## UUGCGCUGUCGAGAGGAUAUGCGGUGUUGGACAUGAGGAUCACCCAUGUUAGCGAUUGCUUUACGGUAGAAGGCUCUUCAGCUGC [salish99_ss2_r3_098] (Eterna round: R96, puzzle: Same State 2)
Input ligand: FMN 200 uM
  apparent KD of MS2 coat protein: 74 nM
[1]
  apparent KD of MS2 coat protein: 50.1 nM
Input ligand: none
  apparent KD of MS2 coat protein: 82.8 nM

## UUGCGCUGUCGAGAGGAUAUGCGGUGUUGGACAUGAGGAUCACCCAUGUUAGCGAUUGCUUUACGGUAGAAGGCUCUUCAGCUGC [salish99_ss2_r3_098] (puzzle: Same State 2)
[2]
  apparent KD of MS2 coat protein: 63.5 nM

## UUGCGGAAUUAAGGAUAUUGAGUACAUAUGUUUAACAUGAGGAUCACCCAUGUGGGUUGCGGUAUCGAGAAGGUAACUUACUAC [salish99_SSNG2_r04_803] (Eterna round: R96, puzzle: Same State NG 2)
Input ligand: FMN 200 uM
  apparent KD of MS2 coat protein: 110 nM
[1]
  apparent KD of MS2 coat protein: 80.5 nM
Input ligand: none
  apparent KD of MS2 coat protein: 102 nM

## UUGCUCGUGUGAGGAUAUGCCGCCGUUUCGGCUGCAGAAGGUACUGUAAUACAUGAGGAUCACCCAUGUCUCUGUUGUUUCGUG [salish99_SSNG1_r04_934] (Eterna round: R96, puzzle: Same State NG 1)
Input ligand: FMN 200 uM
  apparent KD of MS2 coat protein: 17.1 nM
[1]
  apparent KD of MS2 coat protein: 16.4 nM
Input ligand: none
  apparent KD of MS2 coat protein: 19.3 nM

## UUGCUCGUGUGAGGAUAUGCCGCCGUUUCGGCUGCAGAAGGUGCUACGUUACAUGAGGAUCACCCAUGUCUCUGUUGUUUCGUG [salish99_SSNG1_r04_941] (Eterna round: R96, puzzle: Same State NG 1)
Input ligand: FMN 200 uM
  apparent KD of MS2 coat protein: 17.5 nM
[1]
  apparent KD of MS2 coat protein: 19.7 nM
Input ligand: none
  apparent KD of MS2 coat protein: 21.1 nM

## UUGCUUCUCGUAGGAUAUGUAGGAUAUGCCUACAUGAGGAUCACCCAUGUUCGCAUGGCAGAAGGACAGAAGGACGAUCACCCU [pwkr ssNG2 2FMN + 1F5.8] (Eterna round: R96, puzzle: Same State NG 2)
Input ligand: FMN 200 uM
  apparent KD of MS2 coat protein: 43.5 nM
[1]
  apparent KD of MS2 coat protein: 88.1 nM
Input ligand: none
  apparent KD of MS2 coat protein: 472 nM

## UUGGGUUUGCGAGGAUAUCGUAUGUGAUUUGAACGAGAAGGCGCUAUUUAAAUUAUUUUAACAUAACAUGAGGAUCACCCAUGU [JR_SSNG1_Sub021] (Eterna round: R96, puzzle: Same State NG 1)
[1]
  apparent KD of MS2 coat protein: 14.2 nM

## UUGUGUUUGCGAGGAUAUCGUUUGUUGAAGUUACGAGAAGGCGCUCUCAUUACAUGAGGAUCACCCAUGUCUUUGAUGCAUGAU [JR_SSNG1_Sub071] (Eterna round: R96, puzzle: Same State NG 1)
Input ligand: FMN 200 uM
  apparent KD of MS2 coat protein: 54.7 nM
[1]
  apparent KD of MS2 coat protein: 44.5 nM
Input ligand: none
  apparent KD of MS2 coat protein: 68.2 nM
